Laboratory results from patent US20080286819A1.

Columns and labels:
[1] = molecular target: Human soluble FcγRIIB (human) (UniProt P31994); experiment: SPR (Biacore), antibody immobilized, soluble FcγR injected
[2] = molecular target: Mouse soluble FcγRIIB (mouse) (UniProt P08101); experiment: as above
[3] = molecular target: Mouse soluble FcγRIII (mouse) (UniProt P08508); experiment: as above
[4] = molecular target: Human soluble FcγRIIA^131H (human) (UniProt P12318); experiment: as above
[5] = molecular target: Human soluble FcγRIIA^131R (human) (UniProt P12318); experiment: as above
[6] = molecular target: Mouse soluble FcγRIII (mouse) (UniProt P08508); experiment: ratio of SPR affinities; reference mouse FcγRIIB
[7] = molecular target: Human soluble FcγRIIIA^158F (human) (UniProt P08637); experiment: SPR (Biacore), antibody immobilized; + = detectable but very low binding
[8] = molecular target: Mouse soluble FcγRIIB (mouse) (UniProt P08101); experiment: SPR; reference mouse FcγRIII
[9] = molecular target: Human soluble FcγRIIIA^158F (human) (UniProt P08637); experiment: SPR (Biacore), antibody immobilized, soluble FcγR injected
[10] = molecular target: Mouse soluble FcγRIV (mouse); experiment: as above
[11] = molecular target: Mouse soluble FcγRI (mouse) (UniProt P26151); experiment: as above
[12] = molecular target: Mouse soluble FcγRIIB (mouse) (UniProt P08101); experiment: SPR (Biacore), antibody immobilized; + = detectable but very low binding
[13] = molecular target: Mouse soluble FcγRIII (mouse) (UniProt P08508); experiment: as above
[14] = molecular target: Human soluble FcγRIIIA^158F (human) (UniProt P08637); experiment: ratio of SPR affinities; reference human FcγRIIB
[15] = molecular target: Human soluble FcγRIIA^131H (human) (UniProt P12318); experiment: ratio of SPR affinities; reference human FcγRIIB
[16] = molecular target: Human soluble FcγRIIIA^158F (human) (UniProt P08637); experiment: SPR, soluble human Fc-receptor
[17] = molecular target: Human soluble FcγRIIB (human) (UniProt P31994); experiment: SPR, soluble human Fc-receptor
[18] = molecular target: Human soluble FcγRIIA^131H (human) (UniProt P12318); experiment: SPR, soluble human Fc-receptor
[19] = molecular target: Human soluble FcγRIIA^131H (human) (UniProt P12318); experiment: SPR (Biacore), antibody immobilized; + = detectable but very low binding
[20] = molecular target: Human soluble FcγRIIA^131R (human) (UniProt P12318); experiment: as above
[21] = molecular target: Mouse soluble FcγRIV (mouse); experiment: as above
[22] = molecular target: Mouse soluble FcγRIV (mouse); experiment: SPR; reference mouse FcγRIIB
[23] = molecular target: Mouse soluble FcγRIV (mouse); experiment: ratio of SPR affinities; reference mouse FcγRIIB
[24] = molecular target: Human soluble FcγRIIB (human) (UniProt P31994); experiment: SPR; reference human FcγRIIIA and FcγRIIA

UniProt P08101, sequence (P08101 30-210): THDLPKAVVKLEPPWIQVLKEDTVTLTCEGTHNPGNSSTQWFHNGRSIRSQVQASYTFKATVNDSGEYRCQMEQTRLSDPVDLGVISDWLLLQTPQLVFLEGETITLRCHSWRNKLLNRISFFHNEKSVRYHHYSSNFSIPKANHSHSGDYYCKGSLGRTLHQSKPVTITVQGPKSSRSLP
UniProt P31994, sequence (P31994 43-217): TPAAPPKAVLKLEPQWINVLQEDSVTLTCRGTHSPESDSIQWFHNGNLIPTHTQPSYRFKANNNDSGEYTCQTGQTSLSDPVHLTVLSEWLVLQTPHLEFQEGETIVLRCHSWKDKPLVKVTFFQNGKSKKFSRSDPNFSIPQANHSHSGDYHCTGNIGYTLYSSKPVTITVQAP
UniProt P08637, sequence (P08637 17-208): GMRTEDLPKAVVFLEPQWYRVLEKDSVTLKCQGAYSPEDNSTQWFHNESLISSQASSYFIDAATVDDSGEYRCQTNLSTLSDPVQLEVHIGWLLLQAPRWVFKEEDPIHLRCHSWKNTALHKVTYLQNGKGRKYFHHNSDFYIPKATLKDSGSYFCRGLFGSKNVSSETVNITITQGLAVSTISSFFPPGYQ
UniProt P08508, sequence (P08508 31-215): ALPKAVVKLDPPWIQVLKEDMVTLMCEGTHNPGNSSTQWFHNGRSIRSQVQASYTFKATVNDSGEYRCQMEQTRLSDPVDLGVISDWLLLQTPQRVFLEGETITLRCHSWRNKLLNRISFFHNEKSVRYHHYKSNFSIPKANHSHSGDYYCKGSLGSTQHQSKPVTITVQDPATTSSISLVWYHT
UniProt P26151, sequence (P26151 25-297): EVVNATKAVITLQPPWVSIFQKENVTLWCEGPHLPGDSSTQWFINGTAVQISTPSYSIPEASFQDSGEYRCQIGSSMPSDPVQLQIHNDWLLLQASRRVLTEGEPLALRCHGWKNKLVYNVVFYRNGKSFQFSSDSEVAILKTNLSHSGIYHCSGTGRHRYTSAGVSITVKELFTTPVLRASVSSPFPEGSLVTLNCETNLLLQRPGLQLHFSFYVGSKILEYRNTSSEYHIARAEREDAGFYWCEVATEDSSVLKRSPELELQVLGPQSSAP

Ka [1]	Ka [2]	Ka [3]	Ka [4]	Ka [5]	Ka [7]	Ka [9]	Ka [10]	Ka [11]	Substance	other results
	200000 M⁻¹	35000 M⁻¹	380000 M⁻¹	270000 M⁻¹		430000 M⁻¹	2.2e+06 M⁻¹	3.8e+06 M⁻¹	hIgG1 (FITC-isotype switch variant, human Fc-switch variant of the 4-4-20 antibody)	
			120000 M⁻¹	21000 M⁻¹	< 10000 M⁻¹				hIgG2 (FITC-isotype switch variant, human Fc-switch variant of the 4-4-20 antibody)	Ka [12]: < 10000 M⁻¹; Ka [13]: < 10000 M⁻¹
160000 M⁻¹	420000 M⁻¹	680000 M⁻¹	170000 M⁻¹	320000 M⁻¹			2.9e+07 M⁻¹	1.8e+08 M⁻¹	mIgG2a (FITC-isotype switch variant) (antibody)	
120000 M⁻¹	2.2e+06 M⁻¹	640000 M⁻¹	120000 M⁻¹	91000 M⁻¹		10000 M⁻¹	1.7e+07 M⁻¹		mIgG2b (FITC-isotype switch variant) (antibody)	fold higher affinity than to FcγRIIB [22]: 10 fold; A/I (ratio of KA for the activating receptor FcγRIV to KA for the inhibitory FcγRIIB) [23]: 7

Continued, substance first:

Substance	Ka [1]	Ka [2]	Ka [3]	Ka [4]	Ka [5]	Ka [7]	Ka [9]	Ka [10]	Ka [11]	other results
mIgG1 (FITC-isotype switch variant) (antibody)	100000 M⁻¹	3.3e+06 M⁻¹	310000 M⁻¹	40000 M⁻¹	250000 M⁻¹	< 10000 M⁻¹				A/I (ratio of KA for the activating receptor FcγRIII to KA for the inhibitory FcγRIIB) [6]: 0.1; fold higher affinity than to FcγRIII [8]: 10 fold
FITC-IgG2-Fucose (human IgG2 Fc-switch variant of the 4-4-20 antibody lacking fucose)										A/I ratio IIIA/IIB (KA for FcγRIIIA over KA for FcγRIIB) [14]: 5.67; A/I ratio IIA/IIB (KA for FcγRIIA over KA for FcγRIIB) [15]: 5.31; Ka [16]: 144000 M⁻¹; Kd [16]: 6.93 µM; Ka [17]: 25400 M⁻¹; Kd [17]: 39.4 µM; Ka [18]: 135000 M⁻¹; Kd [18]: 7.4 µM
mIgG3 (FITC-isotype switch variant) (antibody)						< 10000 M⁻¹				Ka [19]: < 10000 M⁻¹; Ka [20]: < 10000 M⁻¹
hIgG3 (FITC-isotype switch variant) (antibody)	70000 M⁻¹	83000 M⁻¹		120000 M⁻¹	240000 M⁻¹		180000 M⁻¹		1.2e+06 M⁻¹	Ka [21]: < 10000 M⁻¹
FITC-IgG1-Fucose (human IgG1 Fc-switch variant of the 4-4-20 antibody lacking fucose)										Ka [16]: 5.97e+06 M⁻¹; Kd [16]: 0.168 µM; Ka [17]: 78100 M⁻¹; Kd [17]: 12.8 µM
hIgG4 (FITC-isotype switch variant) (antibody)	48000 M⁻¹								72000 M⁻¹	fold higher affinity than to FcγRIIIA and FcγRIIA [24]: > 4.8 fold; Ka [21]: < 10000 M⁻¹; Ka [12]: < 10000 M⁻¹; Ka [13]: < 10000 M⁻¹; Ka [19]: < 10000 M⁻¹; Ka [20]: < 10000 M⁻¹
